Data set [1] is described as follows: Tape-stripping analysis of topical application of active-calcium phosphate complexes. It counts as in vivo. The settings on record: lysozyme-calcium phosphate particle formulation, human forearm, ten tape strips. The method, then: The purpose of this study was to detect the distribution of actives in the stratum corneum following topical application of the active-calcium phosphate particles • Method: The distribution of STAY C50 within the stratum corneum was assessed by serial tape stripping of the skin to which a STAY C50-calcium phosphate particle formulation was applied. An application site on the forearm of a human subject was marked and 200 μl of the formulation spread by spatula. The site was allowed to dry for 10 minutes and then followed by ten pre-weighed tape stripping using strips of (3 in^2) applied to the application site. STAY C50 was extracted from the tape strips by sonicating the samples in water for 30 minutes and analyzing the samples by HPLC. […] An application site on the forearm of a human subject was marked and 200 μl of the formulation spread by spatula. The site was allowed to dry for 10 minutes and then followed by ten pre-weighed tape stripping using strips of (3 in^2) applied to the application site. Lysozyme was extracted from the tape strips by sonicating the samples in water for 30 minutes and analyzing the samples by HPLC. Lysozyme was detected to a depth of 6 tape strips (FIG. 10). 5. Controlled Slow Release of Active Agents by Franz Cell • Purpose: The purpose of this study was to detect riboflavin from riboflavin attached to calcium phosphate particles. […]

A short description of data set [2]: Lysozyme binding to calcium phosphate particles (UV 280 nm). It counts as physicochemical. The settings on record: pH 6.83. The method, then:
• Calcium phosphate particles • Lysozyme, MP biomedicals LLC. Product No. ICN10083405 • Phosphoric acid, Fisher Scientific, Product No. A260500 Methods: • i. 364.7 mg of Lysozyme as dissolved in 18.01 ml of water (20.25 mg/ml). • ii. 0.8 g of calcium phosphate particles were mixed with 4 ml of water, and the pH of the suspension was adjusted to neutral with diluted phosphoric acid. • iii. 4 ml of Lysozyme solution (20.25 mg/ml) was added to the suspension of calcium phosphate particles to achieve a final concentration of 10.124 mg/ml, and a final volume of 8 ml. The final pH was measured. • iv. The suspension was mixed for 30 min, and centrifuged at 2000×g for 10 min in a bench top centrifuge. • v. The absorbance of supernatant was measured at 280 nm (the detection wavelength for Lysozyme) by UV spectrophotometer. • vi. […]

A short description of data set [3]: pH dependent release of lysozyme from lysozyme calcium phosphate complexes. It counts as physicochemical. The settings on record: flow 1 mL/hr, 8 hours. The method, then:
In the stratum corneum, the pH ranges from approximately 4.3 to 5.0 with pH […] with stratum corneum depth. To study calcium phosphate particle release active agent at conditions analogous to skin, two lysozyme calcium phosphate complexes were exposed to buffers of ph 4.8 (0.5 M sodium acetate) and 7.0 (10 mM Bis Tris) for 8 hours. The buffers flowed through the samples at a rate of 1 mL/hr and were collected hourly and analyzed for lysozyme release by monitoring the peak at 280 nm by UV spectrometer. An equivalent mass of lysozyme Calcium phosphate particles complex was vortexed in pH 4.8 buffer to estimate the total available lysozyme in the sample.

For the substance Lysozyme: Lysozyme, MP biomedicals LLC, in data set [1], the depth of detection came to 6 tape strips. Moreover, the “Lysozyme bound to calcium phosphate particles” value in data set [2] worked out at 6.8 mg/g. In addition, the “lysozyme release from calcium phosphate particles” value is listed as “most of the lysozyme releasing within the first hour” in data set [3] (pH 4.8 (0.5 M sodium acetate)) and “no lysozyme is observed released” in data set [3] (pH 7.0 (10 mM Bis Tris)).

Source of the values: patent US10350168B2, “Dermal delivery compositions comprising active agent-calcium phosphate particle complexes and methods of using the same” (Laboratory Skin Care, Inc., priority 2009, dated 2019).
